This assay addresses metastin receptor (OT7T175) stably expressed on CHO/dhfr- cells (human or rat, not given). The assay is described as follows: cell-based or functional assay.

*1 amine or outer side, *2 acyl side, *3 side chain or, on linkers, in order; H or OH if unused. [ ]: non-standard residue; d: D form. Ser(Me) = O-methylserine, COC[C@H](N[*:1])C(=O)[*:2]; 2Nal = N[C@@H](Cc1ccc2ccccc2c1)C(=O)O; Arg(Me) = CNC(=N)NCCC[C@H](N)C(=O)O; Dap(CONH2) = NC(=O)NC[C@H](N)C(=O)O; Ala(cPr) = N[C@@H](CC1CC1)C(=O)O; Hyp = O=C(O)[C@@H]1C[C@@H](O)CN1; tBuAla = CC(C)(C)C[C@H](N)C(=O)O; Aad = N[C@@H](CCCC(=O)O)C(=O)O; Cha = N[C@@H](CC1CCCCC1)C(=O)O; Cit = NC(=O)NCCC[C@H](N)C(=O)O; Nle = CCCC[C@H](N)C(=O)O; Nva = CCC[C@H](N)C(=O)O; Abu = CC[C@H](N)C(=O)O; Aib = CC(C)(N)C(=O)O

Consider Ac-[dY][Aib]NT[Cha]G[Ala(cPr)][Arg(Me)]W-NH2 [des(1)-Ac-[D-Tyr2,Aib3,Thr5,Cha6,Ala(cPr)8,Arg(Me)9,Trp10]MS10], for which the Specific Activity (EC50 of test compound based on EC50 of Metastin (45-54)); agonist activity, intracellular calcium ion level, FLIPR (ratio to Metastin (45-54)) was determined as 0.6.
The value for Ac-[dY]E[Dap(CONH2)]T[Cha]GL[Arg(Me)]W-NH2 (also: Gly6-Leu7 -CONH- replaced by (E) type alkene) [des(1)-Ac-[D-Tyr2,Glu3,Alb4,Thr5,Cha6,Gly7Ψ((E)CH═CH)Leu8,Arg(Me)9,Trp10]MS10] was 0.5.

B1: des(1)-Ac-[D-Tyr2,Hyp3,Thr5,Cha6,Ser(Me)8,Arg(Me)9,Trp10]MS10 (peptide)
peptide: Ac-[dY][Hyp]NT[Cha]G[Ser(Me)][Arg(Me)]W-NH2
SMILES: CNC(=N)NCCC[C@H](NC(=O)[C@H](COC)NC(=O)CNC(=O)[C@H](CC1CCCCC1)NC(=O)[C@@H](NC(=O)[C@H](CC(N)=O)NC(=O)[C@@H]1C[C@@H](O)CN1C(=O)[C@@H](Cc1ccc(O)cc1)NC(C)=O)[C@@H](C)O)C(=O)N[C@@H](Cc1c[nH]c2ccccc12)C(N)=O
B1: the Specific Activity (EC50 of test compound based on EC50 of Metastin (45-54)); agonist activity, intracellular calcium ion level, FLIPR (ratio to Metastin (45-54)) is 0.5.
Take Ac-[dY][Hyp]NT[Cha]GLRW-NH2 (also: Gly6-Leu7 -CONH- replaced by (E) CH=CH) [des(1)-Ac-[D-Tyr2,Hyp3,Thr5,Cha6,Gly7Ψ((E)CH═CH)Leu8,Trp10]MS10]: the Specific Activity (EC50 of test compound based on EC50 of Metastin (45-54)); agonist activity, intracellular calcium ion level, FLIPR (ratio to Metastin (45-54)) was 0.6.
The value for Ac-[dY][Hyp]ET[Cha]GL[Arg(Me)]W-NH2 (also: Gly6-Leu7 -CONH- replaced by (E)-CH=CH-) [des(1)-Ac-[D-Tyr2,Hyp3,Glu4,Thr5,Cha6,Gly7Ψ((E)CH═CH)Leu8,Arg(Me)9,Trp10]MS10] was 4.6; that for Ac-[dY][Hyp][Dap(CONH2)]T[Cha]GLRW-NH2 (also: Gly6-Leu7 -CONH- replaced by (E)-CH=CH-) [des(1)-Ac-[D-Tyr2,Hyp3,Alb4,Thr5,Cha6,Gly7Ψ((E)CH═CH)Leu8,Trp10]MS10] was 0.5; that for Ac-[dY][Hyp][Dap(CONH2)]TFGL[Arg(Me)]W-NH2 (also: Gly6-Leu7 -CONH- replaced by (E)-CH=CH-) [des(1)-Ac-[D-Tyr2,Hyp3,Alb4,Thr5,Gly7Ψ((E)CH═CH)Leu8,Arg(Me)9,Trp10]MS10] was 0.6.
The value for Ac-[dY][Hyp]NTF[Abu]L[Arg(Me)]W-NH2 [des(1)-Ac-[D-Tyr2,Hyp3,Thr5,Abu7,Arg(Me)9,Trp10]MS10] was 1; that for Ac-[dY][Hyp]NTFGLRW-NH2 (also: Gly6-Leu7 -CONH- replaced by (E) CH=CH) [des(1)-Ac-[D-Tyr2,Hyp3,Thr5,Gly7Ψ((E)CH═CH)Leu8,Trp10]MS10] was 0.4.

B2: des(1)-Ac-[D-Tyr2,Hyp3,Thr5,Cha6,Leu(Me)8,Arg(Me)9,Trp10]MS10 (peptide)
peptide: Ac-[dY][Hyp]NT[Cha]G[tBuAla][Arg(Me)]W-NH2
SMILES: CNC(=N)NCCC[C@H](NC(=O)[C@H](CC(C)(C)C)NC(=O)CNC(=O)[C@H](CC1CCCCC1)NC(=O)[C@@H](NC(=O)[C@H](CC(N)=O)NC(=O)[C@@H]1C[C@@H](O)CN1C(=O)[C@@H](Cc1ccc(O)cc1)NC(C)=O)[C@@H](C)O)C(=O)N[C@@H](Cc1c[nH]c2ccccc12)C(N)=O
Consider B2, for which the Specific Activity (EC50 of test compound based on EC50 of Metastin (45-54)); agonist activity, intracellular calcium ion level, FLIPR (ratio to Metastin (45-54)) was 1.4.
The value for Ac-[dY][Hyp][Cit]T[Cha]GL[Arg(Me)]W-NH2 (also: Gly6-Leu7 -CONH- replaced by (E)-CH=CH-) [des(1)-Ac-[D-Tyr2,Hyp3,Cit4,Thr5,Cha6,Gly7Ψ((E)CH═CH)Leu8,Arg(Me)9,Trp10]MS10] was 0.9.
Take Ac-[dY]ENT[Cha]G[Ser(Me)][Arg(Me)]W-NH2 [des(1)-Ac-[D-Tyr2,Glu3,Thr5,Cha6,Ser(Me)8,Arg(Me)9,Trp10]MS10]: the Specific Activity (EC50 of test compound based on EC50 of Metastin (45-54)); agonist activity, intracellular calcium ion level, FLIPR (ratio to Metastin (45-54)) was 0.5.
As to Ac-[dY]E[Dap(CONH2)]TFGL[Arg(Me)]W-NH2 (also: Gly6-Leu7 -CONH- replaced by (E) type alkene) [des(1)-Ac-[D-Tyr2,Glu3,Alb4,Thr5,Gly7Ψ((E)CH═CH)Leu8,Arg(Me)9,Trp10]MS10], the Specific Activity (EC50 of test compound based on EC50 of Metastin (45-54)); agonist activity, intracellular calcium ion level, FLIPR (ratio to Metastin (45-54)) turned out to be 0.5.

B3: des(1)-Ac-[D-Tyr2,Hyp3,Thr5,Cha6,Nva8,Arg(Me)9,Trp10]MS10 (peptide)
peptide: Ac-[dY][Hyp]NT[Cha]G[Nva][Arg(Me)]W-NH2
SMILES: CCC[C@H](NC(=O)CNC(=O)[C@H](CC1CCCCC1)NC(=O)[C@@H](NC(=O)[C@H](CC(N)=O)NC(=O)[C@@H]1C[C@@H](O)CN1C(=O)[C@@H](Cc1ccc(O)cc1)NC(C)=O)[C@@H](C)O)C(=O)N[C@@H](CCCNC(=N)NC)C(=O)N[C@@H](Cc1c[nH]c2ccccc12)C(N)=O
B3: the Specific Activity (EC50 of test compound based on EC50 of Metastin (45-54)); agonist activity, intracellular calcium ion level, FLIPR (ratio to Metastin (45-54)) is 0.5.

B4: des(1)-Ac-[D-Tyr2,Hyp3,Thr5,Nal(2)6,Arg(Me)9,Trp10]MS10 (peptide)
peptide: Ac-[dY][Hyp]NT[2Nal]GL[Arg(Me)]W-NH2
modifications: not fully specified (residue 7); printed as Ac-D-Tyr-Hyp-Asn-Thr-Nal(2)-Gly-Ala(cPr)-Arg(Me)-Trp-NH2
As to B4, the Specific Activity (EC50 of test compound based on EC50 of Metastin (45-54)); agonist activity, intracellular calcium ion level, FLIPR (ratio to Metastin (45-54)) came out at 1.
Turning to Ac-[dY][Aad]NT[Cha]G[Ala(cPr)][Arg(Me)]W-NH2 [des(1)-Ac-[D-Tyr2,Aad3,Thr5,Cha6,Ala(cPr)8,Arg(Me)9,Trp10]MS10], the Specific Activity (EC50 of test compound based on EC50 of Metastin (45-54)); agonist activity, intracellular calcium ion level, FLIPR (ratio to Metastin (45-54)) was 1.1.
The value for Ac-[dY]ENT[Cha]G[Nva][Arg(Me)]W-NH2 [des(1)-Ac-[D-Tyr2,Glu3,Thr5,Cha6,Nva8,Arg(Me)9,Trp10]MS10] was 0.4.

B5: des(1)-Ac-[D-Tyr2,Hyp3,Thr5,Cha6,Nle8,Arg(Me)9,Trp10]MS10 (peptide)
peptide: Ac-[dY][Hyp]NT[Cha]G[Nle][Arg(Me)]W-NH2
SMILES: CCCC[C@H](NC(=O)CNC(=O)[C@H](CC1CCCCC1)NC(=O)[C@@H](NC(=O)[C@H](CC(N)=O)NC(=O)[C@@H]1C[C@@H](O)CN1C(=O)[C@@H](Cc1ccc(O)cc1)NC(C)=O)[C@@H](C)O)C(=O)N[C@@H](CCCNC(=N)NC)C(=O)N[C@@H](Cc1c[nH]c2ccccc12)C(N)=O
Regarding B5, the Specific Activity (EC50 of test compound based on EC50 of Metastin (45-54)); agonist activity, intracellular calcium ion level, FLIPR (ratio to Metastin (45-54)) was found to be 0.6.
Take Ac-[dY][Hyp]NTF[Aib]L[Arg(Me)]W-NH2 [des(1)-Ac-[D-Tyr2,Hyp3,Thr5,Aib7,Arg(Me)9,Trp10]MS10]: the Specific Activity (EC50 of test compound based on EC50 of Metastin (45-54)); agonist activity, intracellular calcium ion level, FLIPR (ratio to Metastin (45-54)) stood at 1.5.
Take Ac-[dY][Hyp]QT[Cha]GL[Arg(Me)]W-NH2 (also: Gly6-Leu7 -CONH- replaced by (E)-CH=CH-) [des(1)-Ac-[D-Tyr2,Hyp3,Gln4,Thr5,Cha6,Gly7Ψ((E)CH═CH)Leu8,Arg(Me)9,Trp10]MS10]: the Specific Activity (EC50 of test compound based on EC50 of Metastin (45-54)); agonist activity, intracellular calcium ion level, FLIPR (ratio to Metastin (45-54)) was 1.4.
The value for Ac-[dY][Hyp]NTFGL[Arg(Me)]W-NH2 (also: Gly6-Leu7 -CONH- replaced by -CH2S-) [des(1)-Ac-[D-Tyr2,Hyp3,Thr5,Gly7Ψ(CH2S)Leu8,Arg(Me)9,Trp10]MS10] was 1.2.

B6: des(1)-Ac-[D-Tyr2,Hyp3,Thr5,Cha6,Arg(Me)9,Trp10]MS10 (peptide)
peptide: Ac-[dY][Hyp]NT[Cha]GL[Arg(Me)]W-NH2
SMILES: CNC(=N)NCCC[C@H](NC(=O)[C@H](CC(C)C)NC(=O)CNC(=O)[C@H](CC1CCCCC1)NC(=O)[C@@H](NC(=O)[C@H](CC(N)=O)NC(=O)[C@@H]1C[C@@H](O)CN1C(=O)[C@@H](Cc1ccc(O)cc1)NC(C)=O)[C@@H](C)O)C(=O)N[C@@H](Cc1c[nH]c2ccccc12)C(N)=O
As for B6, the Specific Activity (EC50 of test compound based on EC50 of Metastin (45-54)); agonist activity, intracellular calcium ion level, FLIPR (ratio to Metastin (45-54)) was 0.3.
Take Ac-[dY]KNT[Cha]G[Ala(cPr)][Arg(Me)]W-NH2 (also: classed as cyclised or stapled) [des(1)-Ac-[D-Tyr2,Lys3,Thr5,Cha6,Ala(cPr)8,Arg(Me)9,Trp10]MS10]: the Specific Activity (EC50 of test compound based on EC50 of Metastin (45-54)); agonist activity, intracellular calcium ion level, FLIPR (ratio to Metastin (45-54)) was 0.7.
The value for Ac-[dY][Hyp]NTFG[Nva][Arg(Me)]W-NH2 [des(1)-Ac-[D-Tyr2,Hyp3,Thr5,Nva8,Arg(Me)9,Trp10]MS10] was 0.7; that for Ac-[dY][Hyp]NTFG[Ala(cPr)][Arg(Me)]W-NH2 [des(1)-Ac-[D-Tyr2,Hyp3,Thr5,Ala(cPr)8,Arg(Me)9,Trp10]MS10] was 0.8.
With Ac-[dY][Hyp]NT[Cha]GL[Arg(Me)]W-NH2 (also: Gly6-Leu7 -CONH- replaced by -CH2S-) [des(1)-Ac-[D-Tyr2,Hyp3,Thr5,Cha6,Gly7Ψ(CH2S)Leu8,Arg(Me)9,Trp10]MS10], the Specific Activity (EC50 of test compound based on EC50 of Metastin (45-54)); agonist activity, intracellular calcium ion level, FLIPR (ratio to Metastin (45-54)) turned out to be 1.7.
The value for Ac-[dY][Hyp]NTFG[Ser(Me)][Arg(Me)]W-NH2 [des(1)-Ac-[D-Tyr2,Hyp3,Thr5,Ser(Me)8,Arg(Me)9,Trp10]MS10] was 0.8; that for Ac-[dY]ENTFGL[Arg(Me)]W-NH2 (also: Gly6-Leu7 -CONH- replaced by (E) type alkene) [des(1)-Ac-[D-Tyr2,Glu3,Thr5,Gly7Ψ((E)CH═CH)Leu8,Arg(Me)9,Trp10]MS10] was 0.6.
The value for Ac-[dY]DNT[Cha]G[Ala(cPr)][Arg(Me)]W-NH2 [des(1)-Ac-[D-Tyr2,Asp3,Thr5,Cha6,Ala(cPr)8,Arg(Me)9,Trp10]MS10] was 2.5.
